These results are taken from paper PMC11950179 (Nature Communications, 2025).

The data set concerns the molecule itself. The data set is described as follows: cryo-EM structure.

B1: human phosphorylase kinase β subunit (PHKB), phosphorylated (natural protein, UniProt Q93100 1-1093, looked up)
chain: MAGAAGLTAEVSWKVLERRARTKRSGSVYEPLKSINLPRPDNETLWDKLDHYYRIVKSTLLLYQSPTTGLFPTKTCGGDQKAKIQDSLYCAAGAWALALAYRRIDDDKGRTHELEHSAIKCMRGILYCYMRQADKVQQFKQDPRPTTCLHSVFNVHTGDELLSYEEYGHLQINAVSLYLLYLVEMISSGLQIIYNTDEVSFIQNLVFCVERVYRVPDFGVWERGSKYNNGSTELHSSSVGLAKAALEAINGFNLFGNQGCSWSVIFVDLDAHNRNRQTLCSLLPRESRSHNTDAALLPCISYPAFALDDEVLFSQTLDKVVRKLKGKYGFKRFLRDGYRTSLEDPNRCYYKPAEIKLFDGIECEFPIFFLYMMIDGVFRGNPKQVQEYQDLLTPVLHHTTEGYPVVPKYYYVPADFVEYEKNNPGSQKRFPSNCGRDGKLFLWGQALYIIAKLLADELISPKDIDPVQRYVPLKDQRNVSMRFSNQGPLENDLVVHVALIAESQRLQVFLNTYGIQTQTPQQVEPIQIWPQQELVKAYLQLGINEKLGLSGRPDRPIGCLGTSKIYRILGKTVVCYPIIFDLSDFYMSQDVFLLIDDIKNALQFIKQYWKMHGRPLFLVLIREDNIRGSRFNPILDMLAALKKGIIGGVKVHVDRLQTLISGAVVEQLDFLRISDTEELPEFKSFEELEPPKHSKVKRQSSTPSAPELGQQPDVNISEWKDKPTHEILQKLNDCSCLASQAILLGILLKREGPNFITKEGTVSDHIERVYRRAGSQKLWLAVRYGAAFTQKFSSSIAPHITTFLVHGKQVTLGAFGHEEEVISNPLSPRVIQNIIYYKCNTHDEREAVIQQELVIHIGWIISNNPELFSGMLKIRIGWIIHAMEYELQIRGGDKPALDLYQLSPSEVKQLLLDILQPQQNGRCWLNRRQIDGSLNRTPTGFYDRVWQILERTPNGIIVAGKHLPQQPTLSDMTMYEMNFSLLVEDTLGNIDQPQYRQIVVELLMVVSIVLERNPELEFQDKVDLDRLVKEAFNEFQKDQSRLKEIEKQDDMTSFYNTPPLGKRGTCSYLTKAVMNLLLEGEVKPNNDDPCLIS
modifications: phosphorylated by PKAc; phosphoserine at Ser12, Ser27 and Ser701
Regarding B1, the binding result is listed as “binds”.
